From patent publication US20220306739A1

Target: T cell receptor gamma variable 9 (TRGV9) on human γδ T cells (human) (UniProt Q99603)
Assay: γδ T-cell binding (γδ-enriched T cells), readout 'Signal'

B1: VG9B2, chimera human IgG1 mAb (silent Fc) of mouse anti-human TCR Vγ9 clone B3 (antibody, V domains shown)
VH: QGQMQQSGAELVKPGASVKLSCKTSGFTFSSNYISWLKQKPGQSLEWIAWIHGGTGGIGYNQKFTGKAQLTVDTSSTTAYMQFSSLTTEDSAIYYCARRGYGAWFAYWGQGTLVTVSA
VL: DIQMTQSPASLSASVGETVTITCRASENIHNYLAWYQQKQGKSPQLLVYNAKTLADGVPSRFSGSGSGTQYSLKINSLQPEDFGNYYCQHFWSYPLTFGAGTKLELK
With B1 the EC50 was 0.56 nM.
